Reference: patent US20260008856A1, “METHODS OF TREATING DISEASE USING ANTI-IL1RAP ANTIBODIES AND ANTIBODY DRUG CONJUGATES” (Bluefin Biomedicine, Inc., priority 2022, published 2026)

Tested on: TARC level in PBMCs stimulated with HDM and IL-13
Test: TARC level in PBMCs treated by HDM and IL-13
Type: cell-based, human
Conditions: HDM 10 ug/ml, IL-13 0.5 nM; tralokinumab 10 to 0.16 ug/ml; BFB759 1 ug/ml in combination
Procedure: 0.2 million PBMCs in 100 ul medium (RPMI1640, 10% heat-inactivated FBS) were added to each well of 96 well cell culture plate. BFB759 at multiple concentrations in 50 ul medium was added to the wells. The cells were incubated in the incubator for 45 min. Then, 50 ul HDM solution (final concentration 10 ug/ml) was added to the wells. After 7 days incubation, the supernatant was transferred to a new 96 well plate, and used in TARC ELISA right away, or frozen in −80 C freezer for ELISA later. For the combination studies of BFB759 with other drugs, the single agent or combination of drugs were added to the PBMCs, incubated for 45 min, then HDM solution, or HDM and IL-4 or IL-13 solution were added to the wells. The assay was incubated for 7 days, and the supernatant was harvested for TARC ELISA.
In the data shown in FIG. 16, HDM was used at 10 ug/ml, IL-13 was used at 0.5 nM, BFB759 was used at 1 ug/ml, tralokinumab was titrated from 10 ug/ml to 0.16 ug/ml (4 fold dilution, 4 series). Data shown are mean±s.d.

B1: tralokinumab: IL-13 neutralizing antibody, produced by Bluefin Biomedicine according to the published protein sequence (antibody, chains of the INN, looked up, V domains shown)
VH: QVQLVQSGAEVKKPGASVKVSCKASGYTFTNYGLSWVRQAPGQGLEWMGWISANNGDTNYGQEFQGRVTMTTDTSTSTAYMELRSLRSDDTAVYYCARDSSSSWARWFFDLWGRGTLVTVSS
VL: SYVLTQPPSVSVAPGKTARITCGGNIIGSKLVHWYQQKPGQAPVLVIYDDGDRPSGIPERFSGSNSGNTATLTISRVEAGDEADYYCQVWDTGSDPVVFGGGTKLTVL
inhibition of TARC level in HDM and IL-13 stimulated cells: dose dependent inhibition
